Assay results taken from patent US20160272683A1 (Novo Nordisk, published 2016).
Numbered stars: 1 amine (or outer) side, 2 acyl side, 3 side chain; on linkers, the order of the positions; unused ones are H or OH. * marks the point of attachment. C20 diacid = O=C(O)CCCCCCCCCCCCCCCCCCC(=O)*; C18 diacid = O=C(O)CCCCCCCCCCCCCCCCC(=O)*; γGlu = O=C(O)[C@H](CCC(=O)[*:2])N[*:1]

B1: [N-terminal(C20 diacid-gGlu), -1E, 1A, 23Y, 30S, 31G]mimylin (peptide)
peptide: {C20 diacid-γGlu}-EAASELSTAALGRLSAELHELATYPRTETGSGSP-NH2
SMILES: CC(C)C[C@H](NC(=O)[C@H](C)NC(=O)[C@H](C)NC(=O)[C@@H](NC(=O)[C@H](CO)NC(=O)[C@H](CC(C)C)NC(=O)[C@H](CCC(=O)O)NC(=O)[C@H](CO)NC(=O)[C@H](C)NC(=O)[C@H](C)NC(=O)[C@H](CCC(=O)O)NC(=O)CC[C@H](NC(=O)CCCCCCCCCCCCCCCCCCC(=O)O)C(=O)O)[C@@H](C)O)C(=O)NCC(=O)N[C@@H](CCCNC(=N)N)C(=O)N[C@@H](CC(C)C)C(=O)N[C@@H](CO)C(=O)N[C@@H](C)C(=O)N[C@@H](CCC(=O)O)C(=O)N[C@@H](CC(C)C)C(=O)N[C@@H](Cc1c[nH]cn1)C(=O)N[C@@H](CCC(=O)O)C(=O)N[C@@H](CC(C)C)C(=O)N[C@@H](C)C(=O)N[C@H](C(=O)N[C@@H](Cc1ccc(O)cc1)C(=O)N1CCC[C@H]1C(=O)N[C@@H](CCCNC(=N)N)C(=O)N[C@H](C(=O)N[C@@H](CCC(=O)O)C(=O)N[C@H](C(=O)NCC(=O)N[C@@H](CO)C(=O)NCC(=O)N[C@@H](CO)C(=O)N1CCC[C@H]1C(N)=O)[C@@H](C)O)[C@@H](C)O)[C@@H](C)O
B2: [N-terminal(C18 diacid-gGlu), des1, 4Q, 30S, 31G]mimylin (peptide)
peptide: {C18 diacid-γGlu}-ASQLSTAALGRLSAELHELATLPRTETGSGSP-NH2
SMILES: CC(C)C[C@H](NC(=O)[C@H](C)NC(=O)[C@H](C)NC(=O)[C@@H](NC(=O)[C@H](CO)NC(=O)[C@H](CC(C)C)NC(=O)[C@H](CCC(N)=O)NC(=O)[C@H](CO)NC(=O)[C@H](C)NC(=O)CC[C@H](NC(=O)CCCCCCCCCCCCCCCCC(=O)O)C(=O)O)[C@@H](C)O)C(=O)NCC(=O)N[C@@H](CCCNC(=N)N)C(=O)N[C@@H](CC(C)C)C(=O)N[C@@H](CO)C(=O)N[C@@H](C)C(=O)N[C@@H](CCC(=O)O)C(=O)N[C@@H](CC(C)C)C(=O)N[C@@H](Cc1c[nH]cn1)C(=O)N[C@@H](CCC(=O)O)C(=O)N[C@@H](CC(C)C)C(=O)N[C@@H](C)C(=O)N[C@H](C(=O)N[C@@H](CC(C)C)C(=O)N1CCC[C@H]1C(=O)N[C@@H](CCCNC(=N)N)C(=O)N[C@H](C(=O)N[C@@H](CCC(=O)O)C(=O)N[C@H](C(=O)NCC(=O)N[C@@H](CO)C(=O)NCC(=O)N[C@@H](CO)C(=O)N1CCC[C@H]1C(N)=O)[C@@H](C)O)[C@@H](C)O)[C@@H](C)O
B3: [N-terminal(C18 diacid), 5I, 9I, 10I, 20I]mimylin (peptide)
peptide: {C18 diacid}-EASEISTAIIGRLSAELHEIATLPRTETGPESP-NH2
SMILES: CC[C@H](C)[C@H](NC(=O)[C@H](C)NC(=O)[C@@H](NC(=O)[C@H](CO)NC(=O)[C@@H](NC(=O)[C@H](CCC(=O)O)NC(=O)[C@H](CO)NC(=O)[C@H](C)NC(=O)[C@H](CCC(=O)O)NC(=O)CCCCCCCCCCCCCCCCC(=O)O)[C@@H](C)CC)[C@@H](C)O)C(=O)N[C@H](C(=O)NCC(=O)N[C@@H](CCCNC(=N)N)C(=O)N[C@@H](CC(C)C)C(=O)N[C@@H](CO)C(=O)N[C@@H](C)C(=O)N[C@@H](CCC(=O)O)C(=O)N[C@@H](CC(C)C)C(=O)N[C@@H](Cc1c[nH]cn1)C(=O)N[C@@H](CCC(=O)O)C(=O)N[C@H](C(=O)N[C@@H](C)C(=O)N[C@H](C(=O)N[C@@H](CC(C)C)C(=O)N1CCC[C@H]1C(=O)N[C@@H](CCCNC(=N)N)C(=O)N[C@H](C(=O)N[C@@H](CCC(=O)O)C(=O)N[C@H](C(=O)NCC(=O)N1CCC[C@H]1C(=O)N[C@@H](CCC(=O)O)C(=O)N[C@@H](CO)C(=O)N1CCC[C@H]1C(N)=O)[C@@H](C)O)[C@@H](C)O)[C@@H](C)O)[C@@H](C)CC)[C@@H](C)CC

Target: T1, human amylin receptor (human calcitonin receptor + human RAMP3) (human) (UniProt P30988)
T1 sequence (looked up) 1: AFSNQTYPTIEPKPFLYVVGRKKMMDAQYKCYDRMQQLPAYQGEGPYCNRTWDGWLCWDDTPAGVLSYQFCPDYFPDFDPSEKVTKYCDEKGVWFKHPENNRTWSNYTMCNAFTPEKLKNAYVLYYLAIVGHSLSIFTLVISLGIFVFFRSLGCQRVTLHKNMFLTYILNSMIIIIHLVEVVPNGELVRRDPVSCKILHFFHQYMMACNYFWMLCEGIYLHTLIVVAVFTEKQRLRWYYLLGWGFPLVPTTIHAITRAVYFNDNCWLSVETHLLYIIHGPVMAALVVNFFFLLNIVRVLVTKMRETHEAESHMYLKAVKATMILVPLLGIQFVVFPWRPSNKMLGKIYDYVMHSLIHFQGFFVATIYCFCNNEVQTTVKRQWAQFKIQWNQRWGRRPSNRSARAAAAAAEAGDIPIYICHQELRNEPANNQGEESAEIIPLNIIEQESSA
T1 sequence (looked up) 2: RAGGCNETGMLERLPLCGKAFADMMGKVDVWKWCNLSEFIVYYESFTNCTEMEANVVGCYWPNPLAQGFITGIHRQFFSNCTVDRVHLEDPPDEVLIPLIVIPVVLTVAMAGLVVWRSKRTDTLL
Experiment: whole-cell competition vs 125I-rat amylin (Assay Va)

Row | Binder | IC50 [nM]
1 | B1 | 1.92
2 | {C20 diacid-γGlu}-ASGLSTAALGRLSAELHELATYPRTETGSGSP-NH2 [[N-terminal(C20 diacid-gGlu), des1, 4G, 23Y, 30S, 31G]mimylin] | 0.111
3 | B2 | 0.587
4 | B3 | 0.998
